The Immune Epitope Database (IEDB)

Key:
Assay in all cases: IEDB peptide-MHC binding, purified MHC/competitive/radioactivity; ≥ and ≤ were set here for values at or beyond the usual limits of such assays
HLA-A*02:02 = molecular target: HLA-A*02:02
HLA-A*68:02 = molecular target: HLA-A*68:02
HLA-A*02:03 = molecular target: HLA-A*02:03
HLA-A*02:06 = molecular target: HLA-A*02:06
HLA-A*02:01 = molecular target: HLA-A*02:01
[1] = source organism: Vaccinia virus WR
[2] = source organism: Hepacivirus hominis
[3] = source organism: Influenza A virus

Sequence | IC50 (HLA-A*02:02; [1]) | IC50 (HLA-A*68:02; [1]) | IC50 (HLA-A*02:03; [1]) | IC50 (HLA-A*02:06; [1]) | IC50 (HLA-A*02:01; [1]) | also measured
YQCGHYTHI | – | – | – | – | – | IC50 (HLA-A*02:02; source organism: SARS-CoV1): 72 nM; IC50 (HLA-A*68:02; source organism: SARS-CoV1): 2920 nM; IC50 (HLA-A*02:03; source organism: SARS-CoV1): 15 nM; IC50 (HLA-A*02:06; source organism: SARS-CoV1): 9.2 nM; IC50 (HLA-A*02:01; source organism: SARS-CoV1): 20 nM
NTCKPTILAT | 460 nM | 1640 nM | 248 nM | 3920 nM | 4410 nM | –
FLFLAWIML | – | – | – | – | – | IC50 (HLA-A*02:02; source organism: SARS-CoV1): 1.8 nM; IC50 (HLA-A*68:02; source organism: SARS-CoV1): 1340 nM; IC50 (HLA-A*02:03; source organism: SARS-CoV1): 38 nM; IC50 (HLA-A*02:06; source organism: SARS-CoV1): 37 nM; IC50 (HLA-A*02:01; source organism: SARS-CoV1): 6.4 nM
YLRGHTESI | 0.21 nM | 506 nM | 0.18 nM | 91 nM | 3.7 nM | –
KVIKLVKSL | 578 nM | 366 nM | 43 nM | 260 nM | 395 nM | –
IAVITETIPI | 515 nM | 154 nM | 32 nM | 1 nM | 53 nM | –
LIVMLLFAGV | – | – | – | – | – | IC50 (HLA-A*02:02; [2]): 3390 nM; IC50 (HLA-A*68:02; [2]): 4290 nM; IC50 (HLA-A*02:03; [2]): 358 nM; IC50 (HLA-A*02:06; [2]): 169 nM; IC50 (HLA-A*02:01; [2]): 1470 nM
LLSAGIFGA | – | – | – | – | – | IC50 (HLA-A*02:02; source organism: SARS-CoV1): 12 nM; IC50 (HLA-A*68:02; source organism: SARS-CoV1): 106 nM; IC50 (HLA-A*02:03; source organism: SARS-CoV1): 15 nM; IC50 (HLA-A*02:06; source organism: SARS-CoV1): 25 nM; IC50 (HLA-A*02:01; source organism: SARS-CoV1): 8.1 nM
DTMSIYIAVA | 19 nM | 17 nM | 24 nM | 1480 nM | 83 nM | –
ALLSCISVPV | – | – | – | – | – | IC50 (HLA-A*02:02; [2]): 41 nM; IC50 (HLA-A*68:02; [2]): 1270 nM; IC50 (HLA-A*02:03; [2]): 43 nM; IC50 (HLA-A*02:06; [2]): 76 nM; IC50 (HLA-A*02:01; [2]): 28 nM
LALKNSQAEL | 741 nM | 3660 nM | 333 nM | 1250 nM | 3760 nM | –
TLIDFYLCFL | – | – | – | – | – | IC50 (HLA-A*02:02; source organism: SARS-CoV1): 0.041 nM; IC50 (HLA-A*68:02; source organism: SARS-CoV1): 151 nM; IC50 (HLA-A*02:03; source organism: SARS-CoV1): 3.6 nM; IC50 (HLA-A*02:06; source organism: SARS-CoV1): 3 nM; IC50 (HLA-A*02:01; source organism: SARS-CoV1): 2.2 nM
LVSDCASTI | 49 nM | 71 nM | 17 nM | 61 nM | 2740 nM | –
NVLAWLYAA | – | – | – | – | – | IC50 (HLA-A*02:02; source organism: SARS-CoV1): 7.3 nM; IC50 (HLA-A*68:02; source organism: SARS-CoV1): 39 nM; IC50 (HLA-A*02:03; source organism: SARS-CoV1): 15 nM; IC50 (HLA-A*02:06; source organism: SARS-CoV1): 1.6 nM; IC50 (HLA-A*02:01; source organism: SARS-CoV1): 9.2 nM
IVSKCIVQSV | 123 nM | 50 nM | 31 nM | 552 nM | 612 nM | –
AIILASFSA | – | – | – | – | – | IC50 (HLA-A*02:02; source organism: SARS-CoV1): 201 nM; IC50 (HLA-A*68:02; source organism: SARS-CoV1): 870 nM; IC50 (HLA-A*02:03; source organism: SARS-CoV1): 176 nM; IC50 (HLA-A*02:06; source organism: SARS-CoV1): 82 nM; IC50 (HLA-A*02:01; source organism: SARS-CoV1): 274 nM
VLIAGIILLI | 8.8 nM | 33 nM | 35 nM | 1020 nM | 89 nM | –
QIFNIISYI | 111 nM | 6.4 nM | 15 nM | 1.8 nM | 15 nM | –

Sequence | IC50 (HLA-A*02:02; [1]) | IC50 (HLA-A*68:02; [1]) | IC50 (HLA-A*02:03; [1]) | IC50 (HLA-A*02:06; [1]) | IC50 (HLA-A*02:01; [1]) | also measured
RLQMAGVEV | 326 nM | 2510 nM | 531 nM | 4110 nM | 1450 nM | –
VISVIFYFI | 1.4 nM | 7.6 nM | 729 nM | 497 nM | 331 nM | –
PASISSVLT | 1380 nM | 1490 nM | 1360 nM | 1490 nM | 1200 nM | –
GTSVIRSNI | 386 nM | 96 nM | 45 nM | 1610 nM | 666 nM | –
KIEDLINQLV | 87 nM | 1050 nM | 71 nM | 145 nM | 286 nM | –
NTVGMSIVCI | 3020 nM | 198 nM | 1540 nM | 1210 nM | 3260 nM | –
IMTSTRTIIL | 1020 nM | 91 nM | 52 nM | 438 nM | 540 nM | –
IVAMLLTHGA | 1160 nM | 505 nM | 153 nM | 82 nM | 4910 nM | –
TIGTIAGGV | 298 nM | 70 nM | 17 nM | 1140 nM | 772 nM | –
TAYIGTSNWT | 1760 nM | 555 nM | 1050 nM | 220 nM | 4150 nM | –
HIKTIAVSV | 3080 nM | 381 nM | 9.6 nM | 1550 nM | 1050 nM | –
YIILFILFFA | 263 nM | 270 nM | 674 nM | 1050 nM | 234 nM | –
MMVILPDKI | 69 nM | 1630 nM | 16 nM | 909 nM | 161 nM | –
HLFTSMFSL | – | – | – | – | – | IC50 (HLA-A*02:02; [2]): 5.2 nM; IC50 (HLA-A*68:02; [2]): 181 nM; IC50 (HLA-A*02:03; [2]): 105 nM; IC50 (HLA-A*02:06; [2]): 627 nM; IC50 (HLA-A*02:01; [2]): 49 nM
ATICLKNEGV | 436 nM | 87 nM | 71 nM | 42 nM | 239 nM | –
GILGFVFTLT | – | – | – | – | – | IC50 (HLA-A*02:02; [3]): 960 nM; IC50 (HLA-A*68:02; [3]): 730 nM; IC50 (HLA-A*02:03; [3]): 911 nM; IC50 (HLA-A*02:06; [3]): 618 nM; IC50 (HLA-A*02:01; [3]): 640 nM
IVNCLSLSNL | 338 nM | 3590 nM | 128 nM | 1280 nM | 1930 nM | –
